# Measured values reported in patent publication US20060178308A1.
# T1: truncated recombinant rat factor H protein SCR1-7
# T1 chain: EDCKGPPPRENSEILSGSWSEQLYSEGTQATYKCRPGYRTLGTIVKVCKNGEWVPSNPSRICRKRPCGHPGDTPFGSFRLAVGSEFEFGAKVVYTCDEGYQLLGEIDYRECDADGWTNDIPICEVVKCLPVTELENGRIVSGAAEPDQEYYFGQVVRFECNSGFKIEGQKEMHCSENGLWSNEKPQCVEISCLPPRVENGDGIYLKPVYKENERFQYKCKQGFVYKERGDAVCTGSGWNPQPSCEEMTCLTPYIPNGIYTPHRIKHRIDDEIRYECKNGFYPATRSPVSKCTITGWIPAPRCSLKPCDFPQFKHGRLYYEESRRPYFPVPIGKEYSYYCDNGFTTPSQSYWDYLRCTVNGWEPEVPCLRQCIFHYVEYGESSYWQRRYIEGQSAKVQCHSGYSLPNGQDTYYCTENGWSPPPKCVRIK
# T2: recombinant human FHp43, P08603
# T2 chain: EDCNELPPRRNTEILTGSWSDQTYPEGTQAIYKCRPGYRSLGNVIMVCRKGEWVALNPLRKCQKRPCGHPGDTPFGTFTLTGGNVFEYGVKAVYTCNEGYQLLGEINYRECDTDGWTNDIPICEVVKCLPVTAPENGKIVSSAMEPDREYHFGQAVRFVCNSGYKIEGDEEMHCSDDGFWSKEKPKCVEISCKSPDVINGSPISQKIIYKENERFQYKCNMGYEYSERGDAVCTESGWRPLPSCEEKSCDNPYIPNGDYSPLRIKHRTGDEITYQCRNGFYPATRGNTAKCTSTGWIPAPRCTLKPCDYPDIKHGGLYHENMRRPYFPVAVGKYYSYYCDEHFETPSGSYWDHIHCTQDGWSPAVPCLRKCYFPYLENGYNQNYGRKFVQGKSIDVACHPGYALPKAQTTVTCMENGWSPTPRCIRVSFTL
# B1: rat Factor I (protein)
# chain: KNTPASGQPQEDLVEQKCLLKNYTHHSCDKVFCQPWQKCIEGTCACKLPYQCPKAGTPVCATNGRGYPTYCHLKSFECLHPEIKFSNNGTCTAEEKFNVSLIYGSTDTEGIVQVKLVDQDEKMFICKNSWSTVEANVACFDLGFPLGVRDIQGRFNIPVNHKINSTECLHVRCQGVETSLAECTFTKKSSKAPHGLAGVVCYTQDADFPTSQSFQCVNGKRIPQEKACDGVNDCGDQSDELCCKGCRGQAFLCKSGVCIPNQRKCNGEVDCITGEDESGCEEDKKNKIHKGLARSDQGGETEIETEETEMLTPDMDTERKRIKSLLPKLSCGVKRNTHIRRKRVVGGKPAEMGDYPWQVAIKDGDRITCGGIYIGGCWILTAAHCVRPSRYRNYQVWTSLLDWLKPNSQLAVQGVSRVVVHEKYNGATYQNDIALVEMKKHPGKKECELINSVPACVPWSPYLFQPNDRCIISGWGREKDNQKVYSLRWGEVDLIGNCSRFYPGRYYEKEMQCAGTSDGSIDACKGDSGGPLVCKDVNNVTYVWGIVSWGENCGKPEFPGVYTRVASYFDWISYYVGRPLVSQYNV
# B2: human Factor I (protein)
# chain: KVTYTSQEDLVEKKCLAKKYTHLSCDKVFCQPWQRCIEGTCVCKLPYQCPKNGTAVCATNRRSFPTYCQQKSLECLHPGTKFLNNGTCTAEGKFSVSLKHGNTDSEGIVEVKLVDQDKTMFICKSSWSMREANVACLDLGFQQGADTQRRFKLSDLSINSTECLHVHCRGLETSLAECTFTKRRTMGYQDFADVVCYTQKADSPMDDFFQCVNGKYISQMKACDGINDCGDQSDELCCKACQGKGFHCKSGVCIPSQYQCNGEVDCITGEDEVGCAGFASVTQEETEILTADMDAERRRIKSLLPKLSCGVKNRMHIRRKRIVGGKRAQLGDLPWQVAIKDASGITCGGIYIGGCWILTAAHCLRASKTHRYQIWTTVVDWIHPDLKRIVIEYVDRIIFHENYNAGTYQNDIALIEMKKDGNKKDCELPRSIPACVPWSPYLFQPNDTCIVSGWGREKDNERVFSLQWGEVKLISNCSKFYGNRFYEKEMECAGTYDGSIDACKGDSGGPLVCMDANNVTYVWGVVSWGENCGKPEFPGVYTKVANYFDWISYHVGRPFISQYNV
# What was measured:
# [1] = molecular target: T1, truncated recombinant rat factor H …
# [2] = molecular target: T2, recombinant human FHp43, P08603
Protein,"cofactor activity (43 kDa a' cleavage band of the C3b alpha-chain, SDS-PAGE/autoradiography); concentration of rat FHSCR1-7 in the assay [1]","cofactor activity (43 kDa a' cleavage band of the C3b alpha-chain, SDS-PAGE/autoradiography); concentration of FHp43 in the assay [2]"
B1,exhibit cofactor activity even at low concentrations (10 mM) when incubated with C3b and factor I of the corresponding species,–
B2,–,exhibit cofactor activity even at low concentrations (10 mM) when incubated with C3b and factor I of the corresponding species
